# Test results: IntAct's records for PubMed 26307080
# B1: Protein phosphatase 1 regulatory subunit 15B (Homo sapiens), Q5SWA1 (parent)
# chain: MEPGTGGSRKRLGPRAGFRFWPPFFPRRSQAGSSKFPTPLGPENSGNPTLLSSAQPETRVSYWTKLLSQLLAPLPGLLQKVLIWSQLFGGMFPTRWLDFAGVYSALRALKGREKPAAPTAQKSLSSLQLDSSDPSVTSPLDWLEEGIHWQYSPPDLKLELKAKGSALDPAAQAFLLEQQLWGVELLPSSLQSRLYSNRELGSSPSGPLNIQRIDNFSVVSYLLNPSYLDCFPRLEVSYQNSDGNSEVVGFQTLTPESSCLREDHCHPQPLSAELIPASWQGCPPLSTEGLPEIHHLRMKRLEFLQQASKGQDLPTPDQDNGYHSLEEEHSLLRMDPKHCRDNPTQFVPAAGDIPGNTQESTEEKIELLTTEVPLALEEESPSEGCPSSEIPMEKEPGEGRISVVDYSYLEGDLPISARPACSNKLIDYILGGASSDLETSSDPEGEDWDEEAEDDGFDSDSSLSDSDLEQDPEGLHLWNSFCSVDPYNPQNFTATIQTAARIVPEEPSDSEKDLSGKSDLENSSQSGSLPETPEHSSGEEDDWESSADEAESLKLWNSFCNSDDPYNPLNFKAPFQTSGENEKGCRDSKTPSESIVAISECHTLLSCKVQLLGSQESECPDSVQRDVLSGGRHTHVKRKKVTFLEEVTEYYISGDEDRKGPWEEFARDGCRFQKRIQETEDAIGYCLTFEHRERMFNRLQGTCFKGLNVLKQC
# Variants of: B1
# Conditions: with pp1g_human PPP1CC
row,Variant,effect of a mutation on the interaction
1,R658C,decreasing interaction strength

# Variants of: B1
# Conditions: with pp1g_human PPP1CC
# Remark: another data set of the same source
row,Variant,effect of a mutation on the interaction
1,R658C,disrupting interaction strength
